Test results from patent US20260243766A1 (CHILDREN S HOSPITAL OF PHILADELPHIA, published 2026).

Biological target: T1, A*23:01/PHOX2B (human, UniProt P61769 21-119, limits assumed)
T1 construct: The preparation of this complex is not described; also called HLA-A*23:01/PHOX2B complex
Assay: SPR

- Kd: ~20 µM
B1: 10LH single-chain antibody fragment (Clone 10 (RU141-10) scFv) (scFv)
scFv: SRNGGDGQSVLTQPPSVSVSPGQTASITCSGDSLGNKYACWYQQKPGQSPVLVIYQDSKRPSGIPERFSGSNSGNTATLTISGTQAMDEADYYCQAWDSSRGYTVVFGTGTKVTVSSQTGGSGGGGSGGGGSGGGGSEVQLLESGGGLVQPGGSLRLSCAASGFTFDSYAMSWVRQAPGKGLEWVSAISGYGGSTYYADSVKGRFTISRDNSKNTLYLQMNSLRAEDTAVYYCAKYTYFLDAFDIWGQGTMVTVSSS
notes: also called Clone 10LH; scFV 10LH
